# Publication PMC11061236, “Structure-function analysis of plant G-protein regulatory mechanisms identifies key Gα-RGS protein interactions” (The Journal of Biological Chemistry, 2024)
# pKd: −log10 of the molar value.
# Tests used:
# [1] = target: SmRGS N357A (Selaginella moellendorffii); assay: ITC; SmGPA (syringe) injected into SmRGS (cell), 10:1; 20 °C; 50 mM Tris·HCl pH 8.0, 100 mM NaCl, 5 mM MgCl2, 100 mM GDP, 30 mM AlCl3, 20 mM NaF, 2 mM TCEP, 5% glycerol (GDP·Mg2+·AlF4- form that mimics the GTP-bound form); one-site model
# [2] = target: SmRGS E355A (Selaginella moellendorffii); assay: as above
# [3] = target: SmRGS E313A (Selaginella moellendorffii); assay: as above
# [4] = target: RGS domain of Selaginella moellendorffii RGS (SmRGS), wild-type (Selaginella moellendorffii); assay: as above
# OsRGA1 = target: T1, OsRGA1 (Oryza sativa, UniProt A2Y3B5); assay: X-ray crystal structure, […] Å; type: binding; conditions: Mg2+; co-crystallised with 5 mM GDP, 4 °C; nucleotide site between Ras-like and helical domains
# T1 construct: gene GPA1; full-length cDNA in pET-28a, N-terminal His6, E. coli BL21(DE3); tag cut with thrombin for crystals; four monomers in asymmetric unit, modelled within residues 39-375
# T1 sequence (A2Y3B5 whole entry, the tested form may be a part): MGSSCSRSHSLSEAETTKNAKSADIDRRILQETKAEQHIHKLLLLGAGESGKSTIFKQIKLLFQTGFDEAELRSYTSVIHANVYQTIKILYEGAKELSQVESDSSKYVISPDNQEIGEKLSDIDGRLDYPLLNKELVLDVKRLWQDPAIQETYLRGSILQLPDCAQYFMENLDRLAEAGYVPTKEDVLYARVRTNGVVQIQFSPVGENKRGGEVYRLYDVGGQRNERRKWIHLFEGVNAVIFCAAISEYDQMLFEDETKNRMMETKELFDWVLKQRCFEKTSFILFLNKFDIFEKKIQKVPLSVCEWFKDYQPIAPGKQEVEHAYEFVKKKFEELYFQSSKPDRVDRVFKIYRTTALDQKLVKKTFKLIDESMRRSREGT
Compound,pKd [4],dH [4],further results
"Selaginella moellendorffii Gα (SmGPA), wild-type (natural protein)",7.64,-3.07 kcal/mol,pKd [1]: 5.17; dH [1]: -4.36 kcal/mol; pKd [2]: 7.80; dH [2]: -7.04 kcal/mol; pKd [3]: 5.98; dH [3]: -3.74 kcal/mol
SmGPA V189A (natural protein),6.89,-2.89 kcal/mol,
SmGPA Q214A (natural protein),6.57,-5.3 kcal/mol,
SmGPA Y126A (natural protein),7.23,-7.45 kcal/mol,
SmGPA F245A (natural protein),4.77,3.1 kcal/mol,
SmGPA N216A (natural protein),7.26,-4.81 kcal/mol,
SmGPA D125A (natural protein),7.07,-6.53 kcal/mol,
Nc1nc2c(ncn2[C@@H]2O[C@H](COP(=O)(O)OP(=O)(O)O)[C@@H](O)[C@H]2O)c(=O)[nH]1 [GDP],,,"X-ray crystal structure, 2.99 Å (OsRGA1): interactions with the guanine ring and ribose of GDP are comparable to GTPγS bound in SmGPA"
SmGPA E246A (natural protein),4.74,-2.73 kcal/mol,
SmGPA R219A (natural protein),5.71,-6.29 kcal/mol,
